Results reported in patent US20150197571A1.

B1: 4H1 monoclonal antibody (antibody, V domains shown)
VH: DVQLQESGPGLVKPSQSLSLTCTVTDYSITSDYAWTWIRQFPGNKLEWMGYITYRGTTRYNPSLTSRISFTRDTSKNQLFLQLNSVTTEDTGTYCCARSMITTGYYAMDYWGQGTSVTVSS
VL: DIVMTQSHKFMSTSVGDRVSISCKASQDVGISVAWYQQKPGQSPKLLIYWASTRHTGVPVRFTGSGSGTDFTLTISNVQSEDLADYFCQQYSSYPPTFGAGTKLELK
B2: 29E.2A3 (antibody, from a related filing, V domains shown)
VH: EVQLQQSGPELVKPGASVKMSCKASGYTFTSYVMHWVKQKPGQGLEWIGYVNPFNDGTKYNEMFKGKATLTSDKSSSTAYMELSSLTSEDSAVYYCARQAWGYPWGQGTLVTVSA
VL: DIVLTQSPASLAVSLGQRATISCRATESVEYYGTSLVQWYQQKPGQPPKLLIYAASSVDSGVPARFSGSGSGTDFSLTIHPVEEDDIAMYFCQQSRRVPYTFGGGTKLEIK

Experiments:
[1] = target: T1, human PD-L2 expressed on 300.19 cells (human) (UniProt Q9BQ51); test: FACS competition, PD-1-Ig on hPD-L2 300 cells, mAb 10 ug/ml
T1 sequence: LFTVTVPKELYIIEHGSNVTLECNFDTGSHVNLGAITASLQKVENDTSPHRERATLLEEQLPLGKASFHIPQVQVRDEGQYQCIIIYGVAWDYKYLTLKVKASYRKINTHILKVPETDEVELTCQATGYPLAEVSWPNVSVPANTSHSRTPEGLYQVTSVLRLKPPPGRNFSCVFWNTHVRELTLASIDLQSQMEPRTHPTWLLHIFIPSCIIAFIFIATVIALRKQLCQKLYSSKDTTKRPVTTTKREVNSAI

[2] = target: human PD-L1 expressed on 300.19 cells (human) (UniProt Q9NZQ7); test: FACS blockade, B7-1-hIgG on 300-hPD-L1 cells, mAb 0.156 ug/ml
Sequence of UniProt Q9NZQ7 (Q9NZQ7 19-290): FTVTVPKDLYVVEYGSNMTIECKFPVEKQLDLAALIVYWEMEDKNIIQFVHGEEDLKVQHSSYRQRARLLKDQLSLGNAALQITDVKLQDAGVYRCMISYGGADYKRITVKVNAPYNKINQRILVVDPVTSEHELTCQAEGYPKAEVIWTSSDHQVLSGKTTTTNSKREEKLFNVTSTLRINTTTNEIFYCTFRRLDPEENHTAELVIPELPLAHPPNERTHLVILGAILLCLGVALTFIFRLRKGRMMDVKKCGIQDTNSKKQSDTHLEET

[3] = target: T1, human PD-L2 expressed on 300.19 cells (human); test: FACS competition, PD-1-Ig on hPD-L2 300 cells, mAb 3.3 ug/ml
[4] = target: T1, human PD-L2 expressed on 300.19 cells (human); test: FACS competition, PD-1-Ig on hPD-L2 300 cells, mAb 0.12 ug/ml
[5] = target: human PD-L1 expressed on 300.19 cells (human) (UniProt Q9NZQ7); test: FACS competition, PD-1-Ig on hPD-L1 300 cells, mAb 3.3 ug/ml
[6] = target: T1, human PD-L2 expressed on 300.19 cells (human); test: FACS competition, PD-1-Ig on hPD-L2 300 cells, mAb 90 ug/ml
[7] = target: human PD-L1 expressed on 300.19 cells (human) (UniProt Q9NZQ7); test: FACS blockade, B7-1-hIgG on 300-hPD-L1 cells, mAb 0.625 ug/ml
[8] = target: human PD-L1 expressed on 300.19 cells (human) (UniProt Q9NZQ7); test: FACS blockade, B7-1-hIgG on 300-hPD-L1 cells, mAb 0.0098 ug/ml
[9] = target: human PD-L1 expressed on 300.19 cells (human) (UniProt Q9NZQ7); test: FACS on hPD-L1 300 cells, antibody 1 ug/ml
[10] = target: human PD-L1 expressed on 300.19 cells (human) (UniProt Q9NZQ7); test: FACS blockade, B7-1-hIgG on 300-hPD-L1 cells, mAb 20 ug/ml
[11] = target: human PD-L1 expressed on 300.19 cells (human) (UniProt Q9NZQ7); test: FACS on hPD-L1 300 cells, antibody 0.1 ug/ml
[12] = target: human PD-L1 expressed on 300.19 cells (human) (UniProt Q9NZQ7); test: FACS blockade, B7-1-hIgG on 300-hPD-L1 cells, mAb 5 ug/ml
[13] = target: T1, human PD-L2 expressed on 300.19 cells (human); test: FACS competition, PD-1-Ig on hPD-L2 300 cells, mAb 1.1 ug/ml
[14] = target: human PD-L1 expressed on 300.19 cells (human) (UniProt Q9NZQ7); test: FACS blockade, B7-1-hIgG on 300-hPD-L1 cells, mAb 0.313 ug/ml
[15] = target: T1, human PD-L2 expressed on 300.19 cells (human); test: FACS competition, PD-1-Ig on hPD-L2 300 cells, mAb 30 ug/ml
[16] = target: T1, human PD-L2 expressed on 300.19 cells (human); test: FACS on hPD-L2 300 cells, antibody 10 ug/ml
[17] = target: human PD-L1 expressed on 300.19 cells (human) (UniProt Q9NZQ7); test: FACS blockade, B7-1-hIgG on 300-hPD-L1 cells, mAb 0.078 ug/ml
[18] = target: human PD-L1 expressed on 300.19 cells (human) (UniProt Q9NZQ7); test: FACS blockade, B7-1-hIgG on 300-hPD-L1 cells, mAb 0.0195 ug/ml
[19] = target: human PD-L1 expressed on 300.19 cells (human) (UniProt Q9NZQ7); test: FACS competition, PD-1-Ig on hPD-L1 300 cells, mAb 0.37 ug/ml
[20] = target: human PD-L1 expressed on 300.19 cells (human) (UniProt Q9NZQ7); test: FACS competition, PD-1-Ig on hPD-L1 300 cells, mAb 10 ug/ml
[21] = target: T1, human PD-L2 expressed on 300.19 cells (human); test: FACS blockade, PD-1-hIgG1 on PD-L2 300.19 cells
[22] = target: human PD-L1 expressed on 300.19 cells (human) (UniProt Q9NZQ7); test: FACS blockade, B7-1-hIgG on 300-hPD-L1 cells, mAb 2.5 ug/ml
[23] = target: T1, human PD-L2 expressed on 300.19 cells (human); test: FACS competition, PD-1-Ig on hPD-L2 300 cells, mAb 0.37 ug/ml
[24] = target: T1, human PD-L2 expressed on 300.19 cells (human); test: FACS on 300.19 cells expressing human PD-L2
[25] = target: human PD-L1 expressed on 300.19 cells (human) (UniProt Q9NZQ7); test: FACS blockade, B7-1-hIgG on 300-hPD-L1 cells, mAb '0.0.39' [sic] ug/ml
[26] = target: human PD-L1 expressed on 300.19 cells (human) (UniProt Q9NZQ7); test: FACS on hPD-L1 300 cells, antibody 10 ug/ml
[27] = target: human PD-L1 expressed on 300.19 cells (human) (UniProt Q9NZQ7); test: FACS competition, PD-1-Ig on hPD-L1 300 cells, mAb 0.04 ug/ml
[28] = target: human PD-L1 expressed on 300.19 cells (human) (UniProt Q9NZQ7); test: FACS blockade, PD-1-hIgG1 on PD-L1 300.19 cells
[29] = target: T1, human PD-L2 expressed on 300.19 cells (human); test: FACS competition, PD-1-Ig on hPD-L2 300 cells, mAb 0.04 ug/ml
[30] = target: human PD-L1 expressed on 300.19 cells (human) (UniProt Q9NZQ7); test: FACS blockade, B7-1-hIgG on 300-hPD-L1 cells, mAb 10 ug/ml
[31] = target: human PD-L1 expressed on 300.19 cells (human) (UniProt Q9NZQ7); test: FACS competition, PD-1-Ig on hPD-L1 300 cells, mAb 90 ug/ml
[32] = target: human PD-L1 expressed on 300.19 cells (human) (UniProt Q9NZQ7); test: FACS competition, PD-1-Ig on hPD-L1 300 cells, mAb 1.1 ug/ml
[33] = target: T1, human PD-L2 expressed on 300.19 cells (human); test: FACS on hPD-L2 300 cells, antibody 0.1 ug/ml
[34] = target: human PD-L1 expressed on 300.19 cells (human) (UniProt Q9NZQ7); test: FACS blockade, B7-1-hIgG on 300-hPD-L1 cells, mAb 1.25 ug/ml
[35] = target: T1, human PD-L2 expressed on 300.19 cells (human); test: FACS on hPD-L2 300 cells, antibody 1 ug/ml
[36] = target: human PD-L1 expressed on 300.19 cells (human) (UniProt Q9NZQ7); test: FACS on 300.19 cells expressing human PD-L1
[37] = target: T1, human PD-L2 expressed on 300.19 cells (human); test: FACS on hPD-L2 300 cells, supernatant 1 to 100
[38] = target: T1, human PD-L2 expressed on 300.19 cells (human); test: FACS on hPD-L2 300 cells, supernatant undiluted
[39] = target: T1, human PD-L2 expressed on 300.19 cells (human); test: FACS, hybridoma supernatant on 300.19 cells expressing human PD-L2
[40] = target: T1, human PD-L2 expressed on 300.19 cells (human); test: FACS on hPD-L2 300 cells, supernatant 1 to 10
[41] = target: human PD-L1 expressed on 300.19 cells (human) (UniProt Q9NZQ7); test: FACS competition, PD-1-Ig on hPD-L1 300 cells, mAb 30 ug/ml
[42] = target: human PD-L1 expressed on 300.19 cells (human) (UniProt Q9NZQ7); test: FACS competition, PD-1-Ig on hPD-L1 300 cells, mAb 0.12 ug/ml

Molecule	Mean of PE Signal (bound PD-1-Ig) [1]	Mean of PE Signal (bound B7-1-Ig) [2]	Mean of PE Signal (bound PD-1-Ig) [3]	Mean of PE Signal (bound PD-1-Ig) [4]	Mean of PE Signal (bound PD-1-Ig) [5]	Mean of PE Signal (bound PD-1-Ig) [6]	Mean of PE Signal (bound B7-1-Ig) [7]	Mean of PE Signal (bound B7-1-Ig) [8]	Mean of PE signal [9]	Mean of PE Signal (bound B7-1-Ig) [10]	Mean of PE signal [11]	Mean of PE Signal (bound B7-1-Ig) [12]	Mean of PE Signal (bound PD-1-Ig) [13]	Mean of PE Signal (bound B7-1-Ig) [14]	Mean of PE Signal (bound PD-1-Ig) [15]	Mean of PE Signal (bound B7-1-Ig) [17]	Mean of PE Signal (bound B7-1-Ig) [18]	Mean of PE Signal (bound PD-1-Ig) [23]	Mean of PE Signal (bound B7-1-Ig) [25]	Mean of PE Signal (bound PD-1-Ig) [29]	other results
MOPC31C isotype control antibody	52500	3720	52600	59100	11900	53500	3710	4410	183	3590	250	3580	58400	3960	54200	4320	4760	60600	3990	60800	Mean of PE signal [16]: 173; Mean of PE Signal (bound PD-1-Ig) [19]: 13500; Mean of PE Signal (bound PD-1-Ig) [20]: 12600; MFI of bound PD-1-Ig (inversely proportional to blockage) [21]: 19200; Mean of PE Signal (bound B7-1-Ig) [22]: 3880; MFI [24]: 19; Mean of PE signal [26]: 263; Mean of PE Signal (bound PD-1-Ig) [27]: 13300; MFI of bound PD-1-Ig (inversely proportional to blockage) [28]: 26700; Mean of PE Signal (bound B7-1-Ig) [30]: 3550; Mean of PE Signal (bound PD-1-Ig) [31]: 11800; Mean of PE Signal (bound PD-1-Ig) [32]: 13600; Mean of PE signal [33]: 149; Mean of PE Signal (bound B7-1-Ig) [34]: 3490; Mean of PE signal [35]: 164; MFI [36]: 45
C1.18 mIgG2a control (antibody)	–	–	–	–	–	–	–	–	–	4540	–	–	–	–	–	397	3500	–	4280	–	–
B1	56800	–	56000	52500	–	52200	–	–	–	–	–	–	54600	–	56100	–	–	52400	–	54700	Mean of PE signal [37]: 672; Mean of PE signal [38]: 840; MFI [39]: 93; MFI of bound PD-1-Ig (inversely proportional to blockage) [21]: 21100; Mean of PE signal [40]: 757
B2	53800	853	56700	53900	50	55100	850	2540	234000	811	109000	853	56100	770	53900	807	1710	52900	1230	58800	Mean of PE signal [16]: 251; Mean of PE Signal (bound PD-1-Ig) [19]: 65; Mean of PE Signal (bound PD-1-Ig) [41]: 53; Mean of PE Signal (bound PD-1-Ig) [20]: 52; Mean of PE Signal (bound B7-1-Ig) [22]: 823; Mean of PE Signal (bound PD-1-Ig) [42]: 523; Mean of PE signal [26]: 235000; Mean of PE Signal (bound PD-1-Ig) [27]: 6100; Mean of PE Signal (bound B7-1-Ig) [30]: 797; Mean of PE Signal (bound PD-1-Ig) [31]: 54; Mean of PE Signal (bound PD-1-Ig) [32]: 51; Mean of PE signal [33]: 150; Mean of PE Signal (bound B7-1-Ig) [34]: 788; Mean of PE signal [35]: 150
